Source: article PMC6773690, “Scribble co-operatively binds multiple α1D-adrenergic receptor C-terminal PDZ ligands” (Scientific Reports, 2019)
Values belong to the molecule of their own block, whether it stands above or below them. Ends that are not written are not given here. BG‑782 = not defined here

Tests used:
[1] = biological target: biotin-labeled peptide containing the last 20 amino acids of the α1D-adrenergic receptor C-terminus (human) (UniProt P25100); test: BLI; Octet Red 96; 50 nM biotin-labeled α1D-CT peptide immobilised on streptavidin probes, then biocytin; serial dilutions of purified PDZ proteins as analytes until steady state; 20 mM Tris-HCl pH 8.0, 200 mM NaCl, 0.1% bovine serum albumin
[2] = biological target: GST-SCRIB containing all 4 PDZ domains (WT); test: BLI; reverse BLI: GST-SCRIB immobilised on anti-GST probes, serial dilutions of biotin-labeled α1D-CT as analyte; 20 mM Tris-HCl pH 8.0, 200 mM NaCl, 0.1% bovine serum albumin
GST-SCRIB PDZ domain 1 = biological target: T1, GST-SCRIB PDZ domain 1 (UniProt Q14160 728-815); test: BLI; Octet Red 96; 50 nM biotin-labeled α1D-CT peptide immobilised on streptavidin probes, then biocytin; serial dilutions of purified PDZ proteins as analytes until steady state; 20 mM Tris-HCl pH 8.0, 200 mM NaCl, 0.1% bovine serum albumin; details: both partners purified
T1 construct: scribble (SCRIB), PDZ domain 1 alone; also called SCRIB PDZ1; PDZ1; source: E. coli Rosetta (DE3), purified (glutathione agarose); not shown: GST, N-terminal, kept
T1 sequence (Q14160 728-815): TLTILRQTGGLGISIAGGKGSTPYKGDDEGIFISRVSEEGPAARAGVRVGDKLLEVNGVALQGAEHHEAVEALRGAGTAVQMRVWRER

GST-SCRIB PDZ domain 3 = biological target: T2, GST-SCRIB PDZ domain 3 (UniProt Q14160 1004-1093); test: as above; details: both partners purified
T2 construct: scribble (SCRIB), PDZ domain 3 alone; also called SCRIB PDZ3; PDZ3; source: E. coli Rosetta (DE3), purified (glutathione agarose); not shown: GST, N-terminal, kept
T2 sequence (looked up): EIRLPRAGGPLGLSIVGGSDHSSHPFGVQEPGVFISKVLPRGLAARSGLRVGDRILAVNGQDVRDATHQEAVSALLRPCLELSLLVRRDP

[3] = biological target: T3, α1-syntrophin (SNTA) PDZ domain (UniProt Q13424 87-170); test: as above; details: both partners purified
T3 construct: α1-syntrophin (SNTA), PDZ domain; The methods elute GST proteins with glutathione; TEV cleavage is told only for crystallography; source: E. coli Rosetta (DE3), purified (glutathione agarose)
T3 sequence (looked up): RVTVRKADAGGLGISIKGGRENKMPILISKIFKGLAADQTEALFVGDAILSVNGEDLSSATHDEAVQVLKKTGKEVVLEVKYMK

[4] = biological target: T4, calcium/calmodulin-dependent serine protein kinase (CASK) PDZ domain (UniProt O14936 489-564); test: as above; details: both partners purified
T4 construct: calcium/calmodulin-dependent serine protein kinase (CASK), PDZ domain; The methods elute GST proteins with glutathione; TEV cleavage is told only for crystallography; source: E. coli Rosetta (DE3), purified (glutathione agarose)
T4 sequence (looked up): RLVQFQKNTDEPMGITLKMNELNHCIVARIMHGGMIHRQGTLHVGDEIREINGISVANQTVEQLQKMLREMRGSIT

GST-SCRIB PDZ domain 2 = biological target: T5, GST-SCRIB PDZ domain 2 (UniProt Q14160 862-950); test: as above; details: both partners purified
T5 construct: scribble (SCRIB), PDZ domain 2 alone; also called SCRIB PDZ2; PDZ2; source: E. coli Rosetta (DE3), purified (glutathione agarose); not shown: GST, N-terminal, kept
T5 sequence (looked up): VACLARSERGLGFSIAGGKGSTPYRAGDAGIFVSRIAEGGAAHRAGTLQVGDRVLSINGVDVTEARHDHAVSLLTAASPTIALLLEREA

GST-SCRIB PDZ domain 4 = GST-SCRIB PDZ domain 4 (UniProt Q14160 992-1203); test: as above; details: both partners purified
[5] = biological target: GST-SCRIB ΔPDZ4 (C-terminal truncation mutant missing PDZ4); test: pull-down; SNAP GST-pulldown: 1 μM GST-tagged SCRIB proteins on glutathione agarose beads with serial dilutions of BG-782-labeled SNAP-α1D-CT, 1 h at 4 °C; washes 20 mM Tris-HCl pH 8.0, 200 mM NaCl, 0.05% NP-40; PAGE NIR
[6] = biological target: GST-SCRIB ΔPDZ34 (C-terminal truncation mutant missing PDZ3 and PDZ4); test: as above

Molecule: GST-SCRIB H793A (PDZ1 mutation in SCRIB with all 4 PDZ domains) (domain or fragment)
Kd [1]: 7340 nM

Molecule: human discs large MAGUK scaffold protein 1 (DLG1) PDZ domains (domain or fragment)
Kd [1]: 790 nM

B1: biotin-labeled peptide containing the last 20 amino acids of the α1D-adrenergic receptor C-terminus (peptide, UniProt P25100 553-572, looked up)
peptide: GATCQAYELADYSNLRETDI
modifications: also: biotin label (position not given here)
notes: α1D-adrenergic receptor, distal (last) 20 amino acids of the C-terminus; also called α1D-CT; α1D-AR C-terminal PDZ ligand; source: synthetic peptide, bought: BioMatik
Kd [2]: 76 nM
Kd (GST-SCRIB PDZ domain 1): 1930 nM
Kd (GST-SCRIB PDZ domain 3): 44200 nM
Kd [3]: 560 nM
Kd [4]: 1150 nM
Kd (GST-SCRIB PDZ domain 2): 14900 nM
Kd (GST-SCRIB PDZ domain 4): 1140 nM

B2: SNAP-α1D-C terminal domain (SNAP-epitope tag adjacent to the N-terminus of the distal 16 amino acids of the α1D-CT) (peptide)
chain: {BG‑782-SNAP tag}-QAYELADYSNLRETDI
modifications: not fully specified; reading uncertain
maximal binding response, % of SCRIB WT (% of SCRIB WT) [5]: 48
maximal binding response, % of SCRIB WT (% of SCRIB WT) [6]: 34

More lines, in order of falling Kd [1], values ahead:

Kd [1]: 340 nM
Molecule: SCRIB PDZ3 and PDZ4 (PDZ34) (domain or fragment)

Kd [1]: 320 nM
Molecule: GST-SCRIB H1170A (PDZ4 mutation in SCRIB with all 4 PDZ domains) (domain or fragment)

Kd [1]: 160 nM
Molecule: GST-SCRIB ΔPDZ34 (C-terminal truncation mutant missing PDZ3 and PDZ4) (domain or fragment)

Kd [1]: 140 nM
Molecule: GST-SCRIB ΔPDZ4 (C-terminal truncation mutant missing PDZ4) (domain or fragment)

Kd [1]: 70 nM
Molecule: GST-SCRIB containing all 4 PDZ domains (WT) (domain or fragment)
